# In patent US11414646 (QURATIS, dated 2022):
# Target: T1, Toll-like receptor 4 (TLR4) of mouse bone marrow-derived dendritic cells (mouse, UniProt Q9QUK6 26-835)
# T1 construct: whole, on cells; also called TLR (toll-like receptor)-4
# T1 sequence: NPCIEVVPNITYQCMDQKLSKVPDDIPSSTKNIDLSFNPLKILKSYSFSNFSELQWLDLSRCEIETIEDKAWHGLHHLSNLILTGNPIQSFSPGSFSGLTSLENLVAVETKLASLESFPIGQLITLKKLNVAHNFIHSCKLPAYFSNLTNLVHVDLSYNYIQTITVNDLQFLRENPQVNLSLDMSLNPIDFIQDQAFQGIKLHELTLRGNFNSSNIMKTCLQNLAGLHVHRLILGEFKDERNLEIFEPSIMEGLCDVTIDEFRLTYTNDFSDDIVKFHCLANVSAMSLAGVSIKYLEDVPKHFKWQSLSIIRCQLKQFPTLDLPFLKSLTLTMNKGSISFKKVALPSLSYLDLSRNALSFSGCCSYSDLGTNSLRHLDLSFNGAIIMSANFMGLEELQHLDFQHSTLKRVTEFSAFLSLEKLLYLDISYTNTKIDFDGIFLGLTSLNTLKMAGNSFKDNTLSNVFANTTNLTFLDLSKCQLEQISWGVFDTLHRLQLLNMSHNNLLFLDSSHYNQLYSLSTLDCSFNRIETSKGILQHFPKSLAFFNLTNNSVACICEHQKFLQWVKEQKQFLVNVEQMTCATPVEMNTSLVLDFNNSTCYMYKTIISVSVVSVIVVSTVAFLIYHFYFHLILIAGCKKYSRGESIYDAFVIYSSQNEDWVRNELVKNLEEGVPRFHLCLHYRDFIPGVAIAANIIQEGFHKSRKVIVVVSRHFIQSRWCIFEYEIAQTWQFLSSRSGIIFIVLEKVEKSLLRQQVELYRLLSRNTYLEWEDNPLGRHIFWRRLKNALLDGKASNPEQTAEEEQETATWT
# Test: figure legend for FIGS. 3D-3F: confocal microscopy, FACS and immunoprecipitation
binder,measurement,value
"Recombinant Rv2299c protein (His-tagged, Mycobacterium tuberculosis H37Rv, expressed in E. coli BL21) (ligand, also called Rv2299c (His); HSP90 family protein) MNAHVEQLEFQAEARQLLDLMVHSVYSNKDAFLRELISNASDALDKLRIEALRNKDLEVDTSDLHIEIDADKAARTLTVRDNGIGMAREEVVDLIGTLAKSGTAELRAQLREAKNAAASEELIGQFGIGFYSSFMVADKVQLLTRKAGESAATRWESSGEGTYTIESVEDAPQGTSVTLHLKPEDAEDDLHDYTSEWKIRNLVKKYSDFIAWPIRMDVERRTPASQEEGGEGGEETVTIETETLNSMKALWARPKEEVSEQEYKEFYKHVAHAWDDPLEIIAMKAEGTFEYQALLFIPSHAPFDLFDRDAHVGIQLYVKRVFIMGDCDQLMPEYLRFVKGVVDAQDMSLNVSREILQQDRQIKAIRRRLTKKVLSTIKDVQSSRPEDYRTFWTQFGRVLKEGLLSDIDNRETLLGISSFVSTYSEEEPTTLAEYVERMKDGQQQIFYATGETRQQLLKSPHLEAFKAKGYEVLLLTDPVDEVWVGMVPEFDGKPLQSVAKGEVDLSSEEDTSEAEREERQKEFADLLTWLQETLSDHVKEVRLSTRLTESPACLITDAFGMTPALARIYRASGQEVPVGKRILELNPSHPLVTGLRQAHQDRADDAEKSLAETAELLYGTALLAEGGALEDPARFAELLAERLARTL",binding result,binds
